Target: T1, Sec17p (S. cerevisiae (endogenous in yeast vacuoles)), P32602
T1 chain: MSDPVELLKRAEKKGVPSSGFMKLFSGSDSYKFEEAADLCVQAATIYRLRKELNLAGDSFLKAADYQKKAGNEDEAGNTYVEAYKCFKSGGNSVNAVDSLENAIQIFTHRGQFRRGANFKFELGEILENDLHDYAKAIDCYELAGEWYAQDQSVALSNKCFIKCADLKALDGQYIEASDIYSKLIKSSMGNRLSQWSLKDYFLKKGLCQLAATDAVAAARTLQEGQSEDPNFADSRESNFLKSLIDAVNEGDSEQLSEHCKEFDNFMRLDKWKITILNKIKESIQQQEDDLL
Assay: co-IP
Settings: remark: other sources report otherwise

B1: Vam3p, Q12241 1-283 (natural protein)
chain: MSFFDIEAQSSKGNSQQEPQFSTNQKTKELSNLIETFAEQSRVLEKECTKIGSKRDSKELRYKIETELIPNCTSVRDKIESNILIHQNGKLSADFKNLKTKYQSLQQSYNQRKSLFPLKTPISPGTSKERKDIHPRTEAVRQDPESSYISIKVNEQSPLLHNEGQHQLQLQEEQEQQQQGLSQEELDFQTIIHQERSQQIGRIHTAVQEVNAIFHQLGSLVKEQGEQVTTIDENISHLHDNMQNANKQLTRADQHQRDRNKCGKVTLIIIIVVCMVVLLAVLS
Question: Which percent of Vam3p coprecipitated with Sec17p does the source give for B1 here?
Answer: > 50%

From article PMC2132603
